Laboratory results as given in patent US20110086026A1 (ROCHE PALO ALTO, published 2011).
Numbering of substitutions follows the chain as printed.

B1: HuMab LC5002-005 (antibody, V domains shown)
VH: EVQVLDSGGGLVQPGGSLRLSCTASGFTFRLYTMSWVRQTPGRGLEWVSGISGSGLSTYFADSVKGRFTISRDNSKNTVYLQMNSLRAEDTAVYYCAKEGDWIYFDSWGQGTLVIVSS
VL: DIQMTQSPSSLSASVGDRVTITCRASQGISSWLAWYQQKPEKAPKSLIYAASSLQSGVPSRFSGSGSGTDFTLTISSLQPEDFATYYCQQYNSHPPTFGQGTKLEIK
notes: Only the variable domains are tied to this antibody; also called hu-MAB<h-IL-13Ralpha>LC.5002-005 (DSM ACC2711)
B2: HuMab LC5002-002 (antibody, human IgG1, V domains shown)
VH: EVQLLESGGGLVQPGGSLRLSCAASGFTFNIYAMNWVRQAPGKGLEWVSVISGRGITTYYADSVKGRFTISRDNSKNTLYLQMNSLRADDTAVYYCAKGSSSWTDFDYWGQGTLVTVSS
VL: B1 VL with S31R, L33V, H94Y, P96W, L104V
notes: Human IgG1 kappa from a HuMab mouse hybridoma; Only the variable domains are tied to this antibody; also called hu-MAB<h-IL-13R alpha>LC.5002-002 (DSM ACC2709)
B3: HuMab LC5002-003 (antibody, V domains shown)
VH: B2 VH with G10D, V12I, N84D, D89E, S102Y
VL: B1 VL with H94Y, P96W, L104V
notes: Human IgG1 kappa from a HuMab mouse hybridoma; Only the variable domains are tied to this antibody; also called LC50002-003; hu-MAB<h-IL-13Ralpha>LC.5002-003 (DSM ACC2710)
B4: HuMab LC5002-007 (antibody, human IgG1, V domains shown)
VH: QVQLVQSGAEVKKPGSSVKVSCKVSGGTFSSYAFSWVRQAPGQGLEWMGRIIPILGRTNYAQKFQGRVTITADKSTSTAYMEVSSLRSEDTAVYYCAREGETLDYFYYGMDVWGQGTTVTVSS
VL: EIVLTQSPGTLSLSPGERATLSCRASQSVSSSYLAWYQQKPGQAPRLLIYGASSRAIGIPDRFSGSGSGTDFTLTISRLEPEDFAVYYCQHYGSSLTFGGGTKVEIK
notes: Human IgG1 kappa from a HuMab mouse hybridoma; Only the variable domains are tied to this antibody; also called hu-MAB<h-IL-13R alpha>LC.5002-007 (DSM ACC2712)

Target: T1, human IL-13Rα1 (human, UniProt P78552 22-427)
T1 sequence (looked up): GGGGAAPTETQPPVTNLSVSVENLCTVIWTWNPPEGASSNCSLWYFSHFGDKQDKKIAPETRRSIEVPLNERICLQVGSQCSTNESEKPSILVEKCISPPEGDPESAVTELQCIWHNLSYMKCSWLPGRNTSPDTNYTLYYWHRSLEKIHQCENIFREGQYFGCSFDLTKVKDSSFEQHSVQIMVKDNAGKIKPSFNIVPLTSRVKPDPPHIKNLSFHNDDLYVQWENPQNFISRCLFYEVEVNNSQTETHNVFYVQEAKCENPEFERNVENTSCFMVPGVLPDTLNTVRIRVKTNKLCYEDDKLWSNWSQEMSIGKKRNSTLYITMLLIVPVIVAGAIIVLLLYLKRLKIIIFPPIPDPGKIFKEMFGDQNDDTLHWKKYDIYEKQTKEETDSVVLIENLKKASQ
Assay: cell-based or functional assay

**Q.** For B1, which “IC50, IL-13-induced Stat-6 phosphorylation in BSMC” value is on record?
**A.** 1.18 nM

**Q.** And the “IC50, TF-1 proliferation in response to IL-13” value (“IC50, TF-1 proliferation” for short)?
**A.** 0.39 nM

**Q.** B2 was tested. Which “IC50, TF-1 proliferation” value did it give?
**A.** 9.21 nM

**Q.** Which “IC50, IL-13-induced Stat-6 phosphorylation in BSMC” value does the source give for B3 here?
**A.** 5.98 nM

**Q.** What about the “IC50, TF-1 proliferation” value of the same binder?
**A.** 3.07 nM

Target: T2, Cynomolgus IL-13Rα1 expressed in transfected Ba/F3 cells (Cynomolgus, UniProt A0A7N9D0M5 20-425)
T2 construct: Stably transfected murine Ba/F3 cells
T2 sequence: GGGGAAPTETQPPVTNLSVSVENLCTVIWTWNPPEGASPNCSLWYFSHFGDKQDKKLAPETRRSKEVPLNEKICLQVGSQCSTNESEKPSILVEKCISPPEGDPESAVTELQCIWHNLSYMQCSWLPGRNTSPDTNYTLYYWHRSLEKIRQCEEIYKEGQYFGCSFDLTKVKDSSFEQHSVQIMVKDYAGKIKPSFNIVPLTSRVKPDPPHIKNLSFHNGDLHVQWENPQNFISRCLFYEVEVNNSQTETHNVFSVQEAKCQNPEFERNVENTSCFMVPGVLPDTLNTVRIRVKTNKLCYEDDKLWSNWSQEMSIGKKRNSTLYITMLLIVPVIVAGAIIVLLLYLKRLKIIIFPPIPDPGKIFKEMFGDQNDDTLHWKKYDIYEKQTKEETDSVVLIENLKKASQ
Assay: FACS on Ba/F3 cells transfected with Cynomolgus IL-13Rα1, 10 µg/ml
Procedure: The gene coding for IL-13Rα1 was isolated by RT-PCR from Cynomolgus tissue and transfected into in the murine cell line Ba/F3. In order to test whether the HuMabs crossreact with Cynomolgus IL-13Rα1, the stably transfected Ba/F3 cells as well as the parental Ba/F3 cells were incubated with 10 μg/ml of HuMab and control antibodies. As positive control, a polyclonal goat-anti hIL-13Rα1 (R&D Systems) was used. Negative controls included were: a human IgG1 myeloma protein (Nordic) and normal goat serum. Bound antibodies were detected by FACS analysis using an antibody directed against human IgG conjugated with FITC to detect HuMabs and an antibody directed against goat IgG conjugated with FITC to detect goat antibodies. Mean fluorescence intensities (MFI) were compared for the individual antibodies tested on the transfected Ba/F3 line versus the parental line.
All HuMabs of the invention were able to bind to Cynomolgus IL-13Rα1 expressed in transfected Ba/F3 cells. As expected from the close homology between human and Cynomolgus IL-13Rα1, the polyclonal AF152 antibody also bound to the Cynomolgus IL-13Rα1.

**Q.** With B1 as the binder, how does the “MFI Ba/F3_Cyno_IL-13Rα1” value read?
**A.** 102 MFI

**Q.** Which “MFI Ba/F3_Cyno_IL-13Rα1” value does the source give for B2 here?
**A.** 83.7 MFI

**Q.** With B3 as the binder, how does the “MFI Ba/F3_Cyno_IL-13Rα1” value read?
**A.** 82.4 MFI

**Q.** With B4 as the binder, how does the “MFI Ba/F3_Cyno_IL-13Rα1” value read?
**A.** 19 MFI

Target: T3, extracellular domain of hIL-13Rα1 cleaved from hIL-13Rα1:hFc chimeric protein (human, UniProt P78552 22-343)
T3 construct: extracellular domain; also called Cleaved hIL-13Rα1 molecules (MW 40 kDa)
T3 sequence (looked up): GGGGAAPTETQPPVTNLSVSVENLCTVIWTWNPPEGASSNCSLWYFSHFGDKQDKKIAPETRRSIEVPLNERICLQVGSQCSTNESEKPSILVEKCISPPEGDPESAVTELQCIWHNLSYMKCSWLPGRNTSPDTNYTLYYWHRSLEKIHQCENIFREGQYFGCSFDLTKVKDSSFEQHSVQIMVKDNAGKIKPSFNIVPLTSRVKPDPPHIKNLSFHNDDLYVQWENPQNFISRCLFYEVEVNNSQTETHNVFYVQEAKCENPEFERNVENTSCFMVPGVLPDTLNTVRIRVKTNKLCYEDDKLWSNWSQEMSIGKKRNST
Assay: SPR Biacore 3000, C1 chip, HuMab captured by anti-hFcγ, cleaved hIL-13Rα1 as analyte, 1:1 Langmuir model
Procedure: For interaction analysis, a Biacore 3000 instrument was used. Running and reaction buffer was HBS-P (10 mM HEPES, 150 mM NaCl, 0.005% polysurfactant P, pH 7.4) at 25° C. Capturing antibody molecules (anti-hFcγ) were amine-coupled at a concentration of 100 μg/ml at a flow rate of 5 μl/min for 20 minutes. HuMabs were injected at concentrations of 10 μg/ml at a flow rate of 10 μl/min for 30 seconds. Cleaved hIL-13Rα1 molecules (MW 40 kDa) were injected for 200 seconds at seven concentrations between 1.56 nM and 100 nM and washed with HBS-P for five minutes. Regeneration of the surface was accomplished by two injections of 100 mM HCl for 1 min each at a flow rate of […]. The chip, assay format and sequence of injections and kinetic data correspond to the description in the following Table 3. Kinetic data were calculated by fitting kinetic data to a 1:1 Langmuir binding model.

**Q.** Which Kd does the source give for B1 here?
**A.** 0.22 nM

**Q.** And the koff?
**A.** 0.0003 s⁻¹

**Q.** And the kon?
**A.** 1.4e+06 M⁻¹ s⁻¹

**Q.** For B2, which Kd is on record?
**A.** 0.62 nM

**Q.** And the koff?
**A.** 0.00065 s⁻¹

**Q.** And the kon?
**A.** 1.1e+06 M⁻¹ s⁻¹

**Q.** How did the Kd turn out when B3 was run?
**A.** 0.39 nM

**Q.** What about the koff of the same binder?
**A.** 0.00051 s⁻¹

**Q.** What about the kon of the same binder?
**A.** 1.3e+06 M⁻¹ s⁻¹

**Q.** With B4 as the binder, how does the Kd read?
**A.** 4.4 nM

**Q.** What about the koff of the same binder?
**A.** 0.00083 s⁻¹

**Q.** What about the kon of the same binder?
**A.** 190000 M⁻¹ s⁻¹

Target: T1, human IL-13Rα1
Assay: radioligand competition: 125I-IL-13 (0.1 nM) binding to CHO cells expressing human IL-13Rα1 and IL-4Rα
Procedure: ¹²⁵I-IL-13 binding assay was performed using CHO cells expressing human IL-13Rα1 and human IL-4Rα in binding buffer (25 mM HEPES, 150 mM NaCl, 1 mM CaCl₂, 5 mM MgCl₂, and 0.5% bovine serum albumin, adjusted to pH 7.2). 1×10⁵ cells per well were mixed with the antibodies and preincubated for 15 minutes to 1 hour. 0.1 nM ¹²⁵I-IL-13 was added, and the mix was incubated at 4° C. for 4 hours. The concentration of ¹²⁵I-IL-13 used in the assay was determined from saturation binding analysis, competition analysis and determination of input ¹²⁵I-IL-13 to reach equilibrium binding with the cell line. Samples were harvested onto a GF/C filter plate pretreated with 1% PEI/0.5% BSA and counted on Packard TopCount Scintillation counter. Data analysis was performed in PRISM using nonlinear regression curve fit (GraphPad Software, San Diego, Calif.).

**Q.** Which “IC50 (read off the curve)” value does the source give for B1 here?
**A.** ~0.1 nM

**Q.** Which “IC50 (read off the curve)” value does the source give for B2 here?
**A.** ~0.1 nM

**Q.** How did the “IC50 (read off the curve)” value turn out when B3 was run?
**A.** ~0.2 nM
